Measured values as given in paper PMC11645210 (Cell, 2024).

What was measured:
Assay in all cases: SPR
Conditions in all cases: both partners purified
SARS-CoV-1 Urbani RBD = molecular target: T1, SARS-CoV-1 Urbani RBD (SARS-CoV-1 Urbani)
T1 construct: source: Expi293F, purified (cobalt IMAC, SEC)

WIV1 RBD = molecular target: T2, WIV1 RBD (Bat SARS-like coronavirus WIV1)
T2 construct: source: Expi293F, purified (cobalt IMAC, SEC)

SARS-CoV-1 (Urbani) RBD = molecular target: T3, SARS-CoV-1 (Urbani) RBD (SARS-CoV-1 Urbani)
T3 construct: source: Expi293F, purified (cobalt IMAC, SEC)

[1] = molecular target: T4, SARS-CoV-2 Wuhan-Hu-1 RBD (SARS-CoV-2, UniProt P0DTC2)
T4 construct: source: Expi293F, purified (cobalt IMAC, SEC)

Row | Binder | binding result (SARS-CoV-1 Urbani RBD) | Kd (WIV1 RBD) [nM] | koff (WIV1 RBD) [s⁻¹] | kon (WIV1 RBD) [M⁻¹ s⁻¹] | Kd (SARS-CoV-1 (Urbani) RBD) [nM] | koff (SARS-CoV-1 (Urbani) RBD) [s⁻¹] | kon (SARS-CoV-1 (Urbani) RBD) [M⁻¹ s⁻¹] | Kd [1] [nM] | koff [1] [s⁻¹] | kon [1] [M⁻¹ s⁻¹]
1 | VIR-7229 Fab (obtained by fragmentation of the IgG) (Fab, V domains shown) VH: EVQLVESGGSVVQPGRALRLSCAASGITFSSFGMYWVRQAPGKGLEWLGYIAYDGSDTYYADSVKGRFTISRDNSKNTLYLQMNSLRIEDTAVYYCAKDYYPLLSYYYGLDVWGQGTTVTVSS VL: QSVLTQPRSVSGSPGQSVTISCTGTSSDVGAYNYVSWYQQHPGKAPKFMIYDVDQRPSGVPDRFSGSKSGNTASLIISGLQAEDEADYYCSSYAGSYIWVFGGGTQLTVL | binds |  |  |  |  |  |  |  |  | 
2 | VIR-7229 Fab fragment (Fab, V domains shown, source: ExpiCHO (IgG1); Fab by fragmentation of the IgG with the FabLACTICA Fab kit) VH: EVQLVESGGSVVQPGRALRLSCAASGITFSSFGMYWVRQAPGKGLEWLGYIAYDGSDTYYADSVKGRFTISRDNSKNTLYLQMNSLRIEDTAVYYCAKDYYPLLSYYYGLDVWGQGTTVTVSS VL: QSVLTQPRSVSGSPGQSVTISCTGTSSDVGAYNYVSWYQQHPGKAPKFMIYDVDQRPSGVPDRFSGSKSGNTASLIISGLQAEDEADYYCSSYAGSYIWVFGGGTQLTVL |  | 7.85 | 0.00304 | 387000 | 2.46 | 0.000912 | 375000 | 0.185 | 3.67e-05 | 199000
